From US20080044421A1

Target: CD20 (human) (UniProt P11836)
Experiment: FACS on Ramos, Daudi, Raji and BJAB B lymphoma cells; range over four cell lines

Sequence of UniProt P11836 (P11836 whole entry): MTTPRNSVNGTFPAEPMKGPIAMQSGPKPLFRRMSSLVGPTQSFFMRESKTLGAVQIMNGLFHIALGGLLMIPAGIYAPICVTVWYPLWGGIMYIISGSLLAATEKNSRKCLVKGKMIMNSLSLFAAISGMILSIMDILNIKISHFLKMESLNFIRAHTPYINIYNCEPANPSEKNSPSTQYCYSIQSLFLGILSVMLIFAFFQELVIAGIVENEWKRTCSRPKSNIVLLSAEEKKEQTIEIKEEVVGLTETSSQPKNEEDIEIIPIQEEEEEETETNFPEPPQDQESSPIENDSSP

mean fluorescence shift: 5 to 15 units
Substance: RITUXAN (rituximab), monoclonal antibody specific for CD20
